The source of these data is paper PMC9568494, “A portable electrochemiluminescence aptasensor for β-lactoglobulin detection”.

A word on the Kd: it is the equilibrium constant for the complex coming apart. Read a low Kd as tighter binding.

The target in this data set is T1, beta-lactoglobulin (β-LG) (Bos taurus (cow)?, UniProt P02754 17-178).
T1 sequence: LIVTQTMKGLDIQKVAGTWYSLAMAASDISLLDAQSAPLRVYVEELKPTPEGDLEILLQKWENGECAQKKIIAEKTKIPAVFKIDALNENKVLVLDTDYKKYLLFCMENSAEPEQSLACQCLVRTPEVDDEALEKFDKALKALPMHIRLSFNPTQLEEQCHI
As to the kind of experiment: electrochemical (chronoamperometric) titration on gold screen-printed electrode, immobilized β-LG, streptavidin-HRP/TMB; 2 mM MgCl2 in BS-LG selection buffer; aptamer 40-100 nM; Kd read as inflection point; Kd assay: BS-LG, 50 mM Tris pH 7.4, 150 mM NaCl, 2 mM MgCl2 (wash and HRP step; aptamer diluent not stated), 30 min incubation, temperature not stated. As to conditions: protein: commercial; chain copies: 2; label: 5'-biotin.

B1: BLG14 aptamer (ssDNA)
DNA: GACGATCGGACCGCAGTACCCACCCACCAGCCCCAACATCATGCCCATCCGTGTGTG
B1: the Kd was found to be 0.056 µM.
